Test results taken from the MegaScale stability set (Tsuboyama et al. 2023).

B1: EEHEE_rd4_0003 (parent)
chain: KKVTINGVEIKFNNPEEAVKFALELAKRLNLRIEFHGDQIKIE
B2: EEHEE_rd4_0363 (parent)
chain: VTVDIKGMEYHFDNPEEAKKFAERMAKELGGELKVENGTLKVE

Variants of: B1
Assay: folding stability dG (cDNA display proteolysis); higher = more stable
Details: PBS, room temperature

Folding stability dG [kcal/mol], by site and new letter:
K41: P 1.3, Y 2.94, A 2.36, E 2.1, T 2.69, V 3, W 2.85, L 2.86, Q 2.27, N 2.52, H 2.49, M 2.71, I 3.21, S 2.46, G 1.73, F 3, R 2.8, C 3.17, D 1.91
I42: V 2.31, S 1.47, H 1.63, E 1.3, D 1.36, Y 1.6, P 1.27, K 1.43, T 1.38, Q 1.24, G 1.26, M 2.25, A 1.29, N 1.74, F 2.22, L 3.07, W 1.58, R 1.44
E43: P 1.83, T 3.27, M 3.13, R 2.64, A 2.59, G 2.8, C 3.85, D 2.5, S 2.99, F 3.59, Q 2.66, K 2.65, W 3.45, L 3.23, H 2.82, Y 3.45, N 2.6, I 3.32, V 3.28
I40: P 1.24, R 1.25, S 1.43, F 1.78, T 1.51, E 1.44, M 1.92, K 1.5, Q 1.39, H 1.56, G 1.37, C 2.22, L 2.1, Y 1.64, D 1.39, N 1.44, W 2.02, V 2.07

Variants of: B2
Assay: as above
Details: PBS, room temperature

Folding stability dG [kcal/mol]: each site, then its substitutions
F12: K -0.237, H -0.13, I -0.023, Y 0.382, W 0.074, C 1.66, Q -0.27, S -0.396, T -0.58, V -0.424, N -0.908, E -0.877, M 0.11, A -0.113, P -0.958, L 0.213, G -0.303, R -0.751
Y10: Q 0.239, R 0.383, S -0.033, V 0.768, F 1.99, A 0.161, H 0.908, P -0.055, K 0.191, W 1.56, I 1.05, G -0.912, T 0.289, D -0.462, C 1.77, L 0.741, M 0.781, N -0.275, E -0.466
K6: H 2.74, D 2.92, E 2.26, I 1.81, F 3.4, V 1.81, W 2.62, Q 2.34, N 2.84, A 2.53, R 2.17, Y 2.87, G 2.68, S 2.31, P 0.366, L 2.96, T 1.5, C 3.13, M 3.32
V1: N 1.31, F 2.41, M 2, T 2.01, C 2.67, Q 1.33, H 1.63, G 0.889, W 2.81, D 0.479, S 1.45, A 1.48, K 1.2, L 2.03, I 2.06, E 0.523, P 0.612, R 1.29, Y 2.55
G7: I 0.499, N 0.745, F 0.855, P 0.309, K 0.294, W 0.811, H 0.716, E 0.306, Q 0.441, L 0.238, S 0.507, R 0.237, Y 0.918, A 0.278, V 0.407, D 0.499, M 0.304, T 0.445
